Measurements as given in the supplement of paper PMC9112550, “Optimization of the antimicrobial peptide Bac7 by deep mutational scanning” (BMC Biology, 2022).

test system: Escherichia coli TOP10; assay: shrunken log2 fold change of peptide-encoding DNA abundance (4.5 h post-induction vs induction); higher = less antimicrobial activity (less host growth inhibition); conditions: time post-induction: 4.5 h; library: site-saturation at positions 5, 18, 19, 20
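Also: peptides expressed intracellularly from a pBAD plasmid library in pooled LB shake-flask culture, induced with 0.3% L-arabinose, DNA abundance read by NGS, three biological replicates, DESeq2 with apeglm shrinkage.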

Point of comparison: RRIRARPPRLPRPRPRPVWFPRP, “shrunken log2 fold change” value 0.334. Against it:
- RRIRSRPPRLPRPRPRPRHNPRP — lower, -0.324
- RRIRVRPPRLPRPRPRPNFSPRP — lower, -0.153
- RRIRVRPPRLPRPRPRPQYSPRP — lower, 0.0315
- RRIRARPPRLPRPRPRPDMMPRP — within 0.2 log units, 0.139
- RRIRDRPPRLPRPRPRPTIMPRP — lower, -0.347
- RRIRHRPPRLPRPRPRPNYMPRP — lower, -0.0657
- RRIRIRPPRLPRPRPRPEIIPRP — lower, -0.00386
- RRIRRRPPRLPRPRPRPGRPPRP — within 0.2 log units, 0.259
- RRIRMRPPRLPRPRPRPMFCPRP — lower, -0.0875
- RRIRFRPPRLPRPRPRPLKYPRP — lower, -0.262
- RRIRQRPPRLPRPRPRPSAAPRP — within 0.2 log units, 0.486
- RRIRSRPPRLPRPRPRPMGFPRP — lower, -0.0207
- RRIRRRPPRLPRPRPRPHYWPRP — lower, 0.0315
- RRIRERPPRLPRPRPRPMWEPRP — within 0.2 log units, 0.169
- RRIRWRPPRLPRPRPRPLSYPRP — lower, -0.243
- RRIRNRPPRLPRPRPRPVATPRP — lower, -0.0503
- RRIRQRPPRLPRPRPRPRPLPRP — within 0.2 log units, 0.382
- RRIRFRPPRLPRPRPRPCMIPRP — lower, -0.118
- RRIRQRPPRLPRPRPRPIKSPRP — lower, -0.117
- RRIRMRPPRLPRPRPRPWMNPRP — lower, -0.00973
- RRIRLRPPRLPRPRPRPIQRPRP — lower, -0.00804
- RRIRKRPPRLPRPRPRPKMNPRP — within 0.2 log units, 0.2
- RRIRLRPPRLPRPRPRPCPLPRP — lower, -0.333
- RRIRIRPPRLPRPRPRPDQHPRP — lower, -0.202
- RRIRYRPPRLPRPRPRPYSHPRP — lower, -0.958
- RRIRVRPPRLPRPRPRPPQWPRP — within 0.2 log units, 0.353
- RRIRIRPPRLPRPRPRPDDPPRP — lower, -0.0328
- RRIRLRPPRLPRPRPRPKHLPRP — lower, -0.364
- RRIRRRPPRLPRPRPRPNYRPRP — lower, 0.0832
- RRIRVRPPRLPRPRPRPPGNPRP — within 0.2 log units, 0.17
- RRIRFRPPRLPRPRPRPHCQPRP — lower, -0.125
- RRIRDRPPRLPRPRPRPRYQPRP — within 0.2 log units, 0.204
- RRIRERPPRLPRPRPRPGGVPRP — lower, 0.0164
- RRIRYRPPRLPRPRPRPQWPPRP — lower, -0.533
- RRIRDRPPRLPRPRPRPLSNPRP — lower, -0.247
- RRIRVRPPRLPRPRPRPCLDPRP — lower, -0.135
- RRIRGRPPRLPRPRPRPQKAPRP — lower, -0.027
- RRIRTRPPRLPRPRPRPMCMPRP — lower, -0.0542
- RRIRWRPPRLPRPRPRPRLDPRP — within 0.2 log units, 0.459
- RRIRARPPRLPRPRPRPKLIPRP — lower, 0.128
- RRIRKRPPRLPRPRPRPETWPRP — lower, 0.0991
- RRIRMRPPRLPRPRPRPTRAPRP — higher, 1.42
- RRIRNRPPRLPRPRPRPNKGPRP — lower, -0.134
- RRIRTRPPRLPRPRPRPCPPPRP — lower, -0.143
- RRIRSRPPRLPRPRPRPQIDPRP — lower, -0.0914
- RRIRARPPRLPRPRPRPESGPRP — higher, 0.793
- RRIRWRPPRLPRPRPRPWTMPRP — lower, -0.146
- RRIRCRPPRLPRPRPRPYLIPRP — lower, -0.233
- RRIRDRPPRLPRPRPRPERKPRP — lower, 0.0234
- RRIRTRPPRLPRPRPRPPQVPRP — lower, -0.0388
- RRIRDRPPRLPRPRPRPFCRPRP — lower, 0.0534
- RRIRFRPPRLPRPRPRPILLPRP — lower, -0.554
- RRIRFRPPRLPRPRPRPEIYPRP — lower, 0.0026
- RRIRDRPPRLPRPRPRPKAAPRP — lower, 0.0214
- RRIRARPPRLPRPRPRPGAQPRP — higher, 0.92
- RRIRRRPPRLPRPRPRPMYQPRP — lower, -0.058
- RRIRQRPPRLPRPRPRPWVVPRP — lower, 0.0305
- RRIRPRPPRLPRPRPRPWDFPRP — lower, 0.122
- RRIRGRPPRLPRPRPRPQTMPRP — higher, 0.672
- RRIRKRPPRLPRPRPRPHKCPRP — higher, 2.12
- RRIRFRPPRLPRPRPRPNAPPRP — lower, 0.0925
- RRIRQRPPRLPRPRPRPVEEPRP — lower, -0.0284
- RRIRRRPPRLPRPRPRPTHMPRP — higher, 0.577
- RRIRLRPPRLPRPRPRPNLNPRP — lower, -0.716
- RRIRQRPPRLPRPRPRPMKHPRP — lower, -0.373
- RRIRKRPPRLPRPRPRPPPCPRP — higher, 0.585
- RRIRGRPPRLPRPRPRPPCMPRP — within 0.2 log units, 0.293
- RRIRYRPPRLPRPRPRPGNEPRP — lower, -0.229
- RRIRLRPPRLPRPRPRPNQTPRP — lower, -0.0464
- RRIRDRPPRLPRPRPRPVPYPRP — lower, -0.244
- RRIRNRPPRLPRPRPRPEVLPRP — lower, -0.212
- RRIRHRPPRLPRPRPRPGKCPRP — lower, -0.00911
- RRIRFRPPRLPRPRPRPQMAPRP — within 0.2 log units, 0.168
- RRIRLRPPRLPRPRPRPNLQPRP — lower, -0.0904
- RRIRGRPPRLPRPRPRPQMTPRP — higher, 2.33
- RRIRQRPPRLPRPRPRPNGKPRP — lower, -0.362
- RRIRERPPRLPRPRPRPDCWPRP — lower, -0.0875
- RRIRTRPPRLPRPRPRPECPPRP — within 0.2 log units, 0.151
- RRIRPRPPRLPRPRPRPWDNPRP — lower, -0.00581
- RRIRMRPPRLPRPRPRPEIAPRP — lower, 0.0315
- RRIRQRPPRLPRPRPRPYMFPRP — lower, -0.392
- RRIRNRPPRLPRPRPRPQRFPRP — lower, -0.155
- RRIRSRPPRLPRPRPRPRYLPRP — lower, -0.329
- RRIRGRPPRLPRPRPRPICDPRP — higher, 0.717
- RRIRKRPPRLPRPRPRPQSPPRP — within 0.2 log units, 0.18
- RRIRIRPPRLPRPRPRPYQTPRP — lower, -0.0792
- RRIRDRPPRLPRPRPRPWKCPRP — lower, 0.118
- RRIRPRPPRLPRPRPRPMDPPRP — lower, 0.0118
- RRIRDRPPRLPRPRPRPQMYPRP — lower, -0.127
- RRIRFRPPRLPRPRPRPMIKPRP — lower, -0.749
- RRIRTRPPRLPRPRPRPNYLPRP — lower, -0.66
- RRIRQRPPRLPRPRPRPNFNPRP — lower, -0.295
- RRIRMRPPRLPRPRPRPTMFPRP — within 0.2 log units, 0.137
- RRIRCRPPRLPRPRPRPELTPRP — lower, 0.0136
- RRIRARPPRLPRPRPRPSAPPRP — within 0.2 log units, 0.397
- RRIRERPPRLPRPRPRPSMRPRP — within 0.2 log units, 0.353
- RRIRQRPPRLPRPRPRPQQIPRP — lower, -0.0822
- RRIRNRPPRLPRPRPRPCEHPRP — lower, -0.162
- RRIRQRPPRLPRPRPRPCSMPRP — lower, -0.273
- RRIRLRPPRLPRPRPRPSAPPRP — lower, 0.054
- RRIRDRPPRLPRPRPRPMEHPRP — within 0.2 log units, 0.208
- RRIRTRPPRLPRPRPRPEKRPRP — lower, -0.0149
- RRIRMRPPRLPRPRPRPRPNPRP — higher, 0.903
- RRIRYRPPRLPRPRPRPFPCPRP — lower, -0.467
- RRIRRRPPRLPRPRPRPWIPPRP — lower, -0.129
- RRIRNRPPRLPRPRPRPRDTPRP — lower, -0.457
- RRIRKRPPRLPRPRPRPAGTPRP — higher, 0.992
- RRIRVRPPRLPRPRPRPIMKPRP — lower, -0.473
